Assay results from the Human Domainome abundance scans (Beltran et al. 2025).
± gives the uncertainty stated by the source.

B1: Pyruvate dehydrogenase protein X component, mitochondrial, residues 181 to 227; numbered along this chain, O00330 (parent)
chain: RFRLSPAARNILEKHSLDASQGTATGPRGIFTKEDALKLVQLKQTGK

Variants of: B1
Assay: abundance fitness (aPCA) (normalised: wild type 0, dead -1); higher = more abundant; growth selection in yeast, the domain comes from the species named
Details: Homo sapiens

Variant | abundance fitness
K33L | -0.379 ± 0.062
K33M | -0.325 ± 0.067
K33N | -0.462 ± 0.18
K33P | -0.607 ± 0.15
K33Q | 0.036 ± 0.098
K33S | -0.305 ± 0.084
K33T | -0.04 ± 0.084
K33V | -0.291 ± 0.054
K33W | -0.762 ± 0.16
K33Y | -0.401 ± 0.14
E34A | -0.155 ± 0.065
E34C | -0.437 ± 0.17
E34D | -0.058 ± 0.047
E34F | -0.388 ± 0.1
E34G | -0.323 ± 0.045
E34H | -0.095 ± 0.082
E34I | -0.615 ± 0.29
E34L | -0.443 ± 0.061
E34M | -0.536 ± 0.096
E34N | -0.811 ± 0.27
E34P | -0.714 ± 0.13
E34Q | 0.054 ± 0.08
E34R | -0.329 ± 0.05
E34S | -0.178 ± 0.056

Variant | abundance fitness
E34T | -0.299 ± 0.13
E34V | -0.515 ± 0.051
E34W | -0.334 ± 0.12
D35A | -0.637 ± 0.051
D35C | -1.06 ± 0.19
D35E | -0.439 ± 0.2
D35F | -1.25 ± 0.46
D35G | -0.565 ± 0.079
D35I | -0.956 ± 0.47
D35K | -0.828 ± 0.14
D35L | -0.76 ± 0.12
D35N | -0.926 ± 0.39
D35Q | -0.818 ± 0.1
D35R | -0.847 ± 0.093
D35T | -0.936 ± 0.21
D35V | -1 ± 0.1
D35W | -0.814 ± 0.083
D35Y | -0.865 ± 0.19
A36C | -0.339 ± 0.11
A36D | -0.262 ± 0.088
A36E | -0.317 ± 0.093
A36G | -0.513 ± 0.051
A36H | -0.562 ± 0.14
A36I | -0.947 ± 0.078

Variant | abundance fitness
A36K | -0.563 ± 0.17
A36L | -0.756 ± 0.093
A36M | -0.41 ± 0.073
A36N | -0.428 ± 0.18
A36P | -0.908 ± 0.31
A36R | -0.723 ± 0.089
A36S | -0.512 ± 0.12
A36T | -0.669 ± 0.15
A36V | -0.823 ± 0.057
A36W | -1.02 ± 0.12
L37A | -0.55 ± 0.1
L37C | -0.388 ± 0.079
L37D | 0.035 ± 0.14
L37E | 0.278 ± 0.09
L37F | -0.402 ± 0.094
L37G | -0.233 ± 0.05
L37H | -0.544 ± 0.17
L37I | -0.369 ± 0.12
L37K | -0.088 ± 0.08
L37M | -0.183 ± 0.061
L37P | -0.541 ± 0.071
L37Q | -0.545 ± 0.14
L37R | -0.377 ± 0.07
L37S | -0.286 ± 0.078

Variant | abundance fitness
L37T | -0.072 ± 0.099
L37V | -0.165 ± 0.068
L37W | -0.293 ± 0.054
L37Y | -0.383 ± 0.21
K38A | -0.105 ± 0.065
K38C | -0.453 ± 0.087
K38D | -0.577 ± 0.23
K38F | -0.781 ± 0.11
K38G | -0.354 ± 0.089
K38H | -0.149 ± 0.12
K38I | -0.604 ± 0.079
K38L | -0.775 ± 0.058
K38M | -0.251 ± 0.088
K38N | -0.258 ± 0.13
K38P | -0.33 ± 0.071
K38R | 0.042 ± 0.076
K38S | 0.007 ± 0.085
K38T | -0.643 ± 0.097
K38V | -0.391 ± 0.089
K38W | -0.951 ± 0.12
L39A | -0.319 ± 0.067
L39C | -0.694 ± 0.14
L39D | -0.121 ± 0.1
L39E | -0.28 ± 0.047

Variant | abundance fitness
L39F | -0.746 ± 0.18
L39G | -0.222 ± 0.062
L39H | -0.271 ± 0.066
L39K | -0.545 ± 0.21
L39M | -0.089 ± 0.1
L39N | 0.065 ± 0.094
L39P | -0.348 ± 0.086
L39Q | -0.619 ± 0.21
L39R | -0.484 ± 0.12
L39S | -0.127 ± 0.065
L39T | -0.505 ± 0.16
L39V | -0.315 ± 0.074
L39W | -0.731 ± 0.098
L39Y | -0.874 ± 0.17
V40A | -0.338 ± 0.073
V40C | -0.183 ± 0.21
V40D | -0.195 ± 0.081
V40F | -0.592 ± 0.16
V40G | -0.545 ± 0.059
V40H | -1.01 ± 0.4
V40I | -0.411 ± 0.082
V40K | -0.099 ± 0.11
V40P | -0.314 ± 0.12
V40Q | -0.252 ± 0.12

Variant | abundance fitness
V40R | -0.439 ± 0.067
V40S | -0.381 ± 0.088
V40T | -0.706 ± 0.14
V40Y | -0.295 ± 0.087
Q41C | -0.855 ± 0.19
Q41D | -0.085 ± 0.1
Q41E | 0.193 ± 0.07
Q41G | -0.227 ± 0.075
Q41H | -0.452 ± 0.18
Q41I | -0.648 ± 0.12
Q41L | -0.353 ± 0.058
Q41M | -0.181 ± 0.066
Q41N | -0.159 ± 0.12
Q41P | -0.2 ± 0.11
Q41R | 0.214 ± 0.061
Q41S | 0.2 ± 0.056
Q41V | -0.287 ± 0.078
Q41W | -0.395 ± 0.056
Q41Y | -0.639 ± 0.17
L42A | 0.131 ± 0.052
L42C | 0.013 ± 0.062
L42D | 0.085 ± 0.051
L42E | 0.096 ± 0.079
L42F | -0.535 ± 0.14

Variant | abundance fitness
L42G | -0.183 ± 0.057
L42H | -0.618 ± 0.28
L42I | -0.291 ± 0.17
L42K | 0.221 ± 0.12
L42M | -0.09 ± 0.1
L42N | -0.288 ± 0.24
L42P | -0.347 ± 0.1
L42Q | 0.115 ± 0.064
L42R | -0.094 ± 0.044
L42S | -0.247 ± 0.081
L42T | -0.198 ± 0.076
L42V | -0.001 ± 0.045
L42W | -0.251 ± 0.068
L42Y | -0.058 ± 0.14
K43A | -0.083 ± 0.084
K43C | -0.267 ± 0.15
K43D | -0.227 ± 0.14
K43E | -0.395 ± 0.1
K43F | -0.305 ± 0.084
K43G | -0.141 ± 0.054
K43H | 0.299 ± 0.14
K43L | -0.575 ± 0.059
K43P | -0.477 ± 0.13
